Laboratory results from patent publication US20180172683A1 (published 2018).
Ends that are not written are not given here. Ser‑Gly linker = flexible serine-glycine linker, six amino acids long

How the values were obtained:
[1] = target: T1, B-cell lymphoma extra-large protein (Bcl-xL), first 209 amino acids with N-terminal avitag (UniProt Q07817 1-209, biotin on the avitag (BirA biotin ligase); a non-biotinylated form was used as the excess competitor in solution in the off-rate assays); assay: radiolabeled HA-tagged peptide off-rate from immobilized Bcl-xL
T1 construct: range 1-209; Expressed in E. coli BL21(DE3); Used in solution (forward assays) or immobilized through biotin on streptavidin plates or beads (reverse assay, off-rate and HTSK experiments); not shown: His tag implied (pET24a NdeI/XhoI, Ni-NTA purification, anti-HIS probe)
T1 sequence (Q07817 other isoform, or with tags, fused parts or gaps): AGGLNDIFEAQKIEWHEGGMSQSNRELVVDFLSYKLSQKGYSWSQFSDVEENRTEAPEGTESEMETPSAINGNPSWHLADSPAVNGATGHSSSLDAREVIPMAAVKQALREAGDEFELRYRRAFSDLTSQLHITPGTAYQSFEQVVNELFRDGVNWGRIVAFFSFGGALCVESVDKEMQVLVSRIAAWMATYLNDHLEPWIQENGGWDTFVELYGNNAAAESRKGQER
Procedure: The radiolabeled peptides were allowed to bind to 30 pmol immobilized Bcl-xL for 1 hour in sample buffer (1×PBS, 1% (w/v) BSA, 0.1% (v/v) Tween 20, 10 μM biotin). The beads were magnetically separated, and washed 5× with sample buffer. The beads were resuspended in 1 mL of sample buffer containing 3 μM non-biotinylated Bcl-xL (˜100× molar excess relative to immobilized biotinylated Bcl-xL). At various time points, 100 μL of slurry was removed and the beads were magnetically separated and washed. The percent remaining at each time point was determined by dividing the counts per minute (cpm) on beads by total cpm (beads+washes). The peptide off-rate was determined by an exponential fit of the Percent counts on beads vs. Time (s).
The peptide ligands were made using a C-terminal HA tag, and affinity purified.

[2] = target: T1, B-cell lymphoma extra-large protein …; assay: radiolabeled peptide off-rate, reference D1

B1: D79, radiolabeled in vitro translated peptide with C-terminal serine-glycine linker and HA tag (peptide)
peptide: MIDTNVILNYKKAADHFSITM-{Ser‑Gly linker-HA tag}
modifications: also: 35S-labeled methionine
notes: Frequency rank 79 in the doped selection pool; also called peptide D79; not shown: flexible serine-glycine linker, six amino acids long; HA tag
In the case of B1, the koff [1] is reported as 5.9e-07 s⁻¹ and the “fold slower off-rate than D1” value [2] is reported as over 3 fold.
